# Laboratory results as given in US9750814B2, “Polypeptides to inhibit epstein barr viral protein BHRF1 and B cell lymphoma family proteins” (priority 2014, dated 2017).
# B1: Index 21: SEQ ID NO: 113; computational precursor for BbpD04 (protein)
# chain: GFDWKKVLDKAKDLAENDVREAKQKLEEFYKKAMKLDLTQEMRRKLMLEWIAAMLMAIGDIFNAIEQGKQEADKLKKLGKVLSQLLDELKRRLEELKEEAALKAHDFGREFELKLLFG
# modifications: optionally absent
# B2: MINDI: SEQ ID NO: 2; target Mcl-1 (protein)
# chain: ADPKKVLDKAKDQAENRVRELKQVLEELYKEARKLDLTQEMRKKLIERYAAAIIRAIGDINNAIYQAKQEAEKLKKAGLVNSQQLDELLRRLDELQKEASRKANEYGREFELKLEY
# Experiments:
# [1] = target: BHRF1 (Epstein-Barr virus, UniProt P03182); conditions: FACS sort for binding signal after 400 nM BHRF1
# Description: This was reduced to 74 designs (Indexes-01 to 74) after filtering for strong interface binding energy, low monomer folding energy and a low number of buried unsatisfied hydrogen bonding atoms. Barcoded genes were synthesized (Table 3) and the library transformed in to yeast for surface display (6×10^5 transformants). […] The library was sorted by a single round of FACS for cells expressing surface protein (FIG. 1C; lane 1), for the 2% of cells with highest expression (lane 2), and for cells showing binding signal after incubation with 100 nM (lane 3) or 400 nM BHRF1 (lane 4). DNA from the naive and post-sorted populations was harvested and sequenced by Illumina deep sequencing, and the recovery of each designed sequence determined.
# Binding of biotinylated protein to the yeast surface is detected with phycoerythrin-conjugated streptavidin (Invitrogen).
# Yeast cells were sorted on a BD Influx cytometer operated by Spigot (BD Biosciences) and recovered in SDCAA media at 30° C. overnight. Yeast were lysed with 125 U/ml Zymolase at 37° C. for 5 h, and DNA was harvested (Zymoprep kit from Zymo Research). […] DNA was deep sequenced with a MiSeq™ sequencer (Illumina) and sequences were analyzed with adapted scripts from Enrich (Fowler et al., 2011). […]
# [2] = system: colon cancer cell lines; experiment: Long-term survival assay, colon cancer cell lines; type: cell-based, human; conditions: colon cancer lines
# Method: Inducible αMCL1 and αBFL1 constructs were generated in a lentiviral vector described in Aubrey et al. (2015). Ligand expression is linked via the T2A peptide to mCherry™ fluorescent reporter protein. […] Viral supernatants were then filtered prior to target cell transduction. […] For infection of MEFs and colon cancer cell lines, equal volume of virus-containing supernatant was added to target cells pre-incubated with 10 ng/μL polybrene, and centrifuged at 2500 rpm for 2 hours at 32° C. Following spin inoculation, cells were then incubated overnight at 37° C. Cells expressing the doxycycline-inducible constructs were then selected by sorting mCherry^+ve cells. MEFs were maintained in DME Kelso medium supplemented with 10% (v/v) FBS, 250 mM L-asparagine and […] 2-mercaptoethanol. Colon cancer cell lines were maintained in DMEM/F-12 supplemented with 10% (v/v) FBS.
# MEF and colon cancers were seeded in 6-well tissue culture plates in 2 mL culture media at 150 cells per mL. The next day and every 48 hours following, doxycycline was added at a final concentration of 1 μg/mL to each well, while nothing was added to control wells.
# [3] = system: BCL2 family proteins; experiment: BLI specificity across BCL2 family proteins (next tightest binder versus intended target); design: species or system human; conditions: fold weaker affinity for next tightest binding BCL2 family protein versus intended target
# [4] = target: T1, Mcl-1 (Homo sapiens, UniProt Q07820); experiment: Bio-layer interferometry (BLI), immobilized Mcl-1; type: binding; conditions: BLI titrations
# T1 construct: Mcl-1 a.a; made in house; host or cells: E. coli BL21* (DE3)
# Description: 11-175 (NP_065129.1), Mcl-1 a.a. […] For later BLI analysis, Bcl-B and Bfl-1 were genetically fused to C-terminal maltose-binding-protein with an avi-6his tag for improved solution properties. Codon usage was optimized for E. coli expression. […] The genes for individually-tested designed proteins were assembled from oligos (Hoover and Lubkowski, 2002) and cloned into pET29b (NdeI-XhoI sites) with C-terminal 6his tags for purification from E. coli, or cloned into PETCON (NdeI-XhoI sites; (Fleishman et al., 2011)) for yeast surface expression. Alternative tags were added using PCR methods. Point mutations were made by overlapping PCR (Procko et al., 2013). Error-prone PCR with an average error rate of 1.3 amino acid substitutions per clone used GeneMorph II Random Mutagenesis (Agilent Technologies).
# Purified avi-6his-tagged ligands (20 μM) in reaction buffer (250 mM potassium glutamate, 20 mM Tris-Cl [pH 7.5], 50 mM bicine [pH 8.3], 10 mM ATP, 10 mM MgOAc, 100 μM d-biotin) were enzymatically biotinylated with 150 U/μl BirA (Avidity) at room temperature overnight, followed by purification with NiNTA-agarose and SEC. Biotinylated ligands were stored at 4° C. in 150 mM NaCl, 20 mM Tris-Cl (pH 7.5), 1 mM DTT, 0.02% sodium azide.
# Data were collected on an Octet RED96 (Forte Bio) and processed using the instrument's integrated software. […] Biosensors were dipped in solutions containing the analyte of interest to measure association, and transferred back to empty binding buffer for monitoring dissociation. Kinetic constants were determined from the mathematical fit of a 1:1 binding model.
# [5] = system: Bim association with pro-survival homologs in HeLa cells; experiment: Bim co-immunoprecipitation in HeLa cells; type: cell-based, human
# Method: Cells were harvested, washed with PBS, and extracted with ice-cold Chaps buffer (40 mM Tris-HCl, pH 7.5, 150 mM NaCl, 1 mM EDTA, 2% CHAPS, and Complete Protease Inhibitors [Roche]) for 20 minutes, on ice. Extracts were spun down at 10,000 g for 10 min and supernatants were removed and used for SDS-PAGE analysis. Expression of proteins of interest was analyzed using antibodies against Bcl-2, Bcl-xL, Mcl-1 (as above), Bfl-1 (ProsSci, Inc.), Bim (BD Biosciences), and tubulin (SigmaAldrich). For immunoprecipitation experiments, 1,000 μg protein lysates were pre-cleared and then incubated with 3 μg Bim antibody for 2 hours at 4° C., followed by addition of Protein A/G Plus agarose beads (Santa Cruz Biotechnology) and overnight incubation with rotation at 4° C. Negative control reactions used normal IgG. Immunoprecipitates were washed four times with lysis buffer and eluted with loading buffer at 95° C., 2 times for 10 min, followed by SDS-PAGE analysis.
# [6] = system: Mcl-1-dependent MEF line; experiment: Long-term survival (colony) assay, Mcl-1-dependent MEFs; type: cell-based, mouse; conditions: seven day colony survival, doxycycline-induced expression
# Description: Mouse embryonic fibroblasts were generated from E13-E14.5 embryos derived from CreERT2/Bcl-x^fl/fl/Mcl-I^fl/fl C57BL/6 mice (Kelly et al., 2014) and immortalized (at passage 2-4) with SV40 large T antigen. Retroviral expression constructs in the pMIG vector (Murine Stem Cell Virus-IRES-GFP) expressing each FLAG-tagged pro-survival protein were transiently transfected using LIPOFECTAMINE™ (Invitrogen), into Phoenix ecotropic packaging cells. Filtered virus-containing supernatants were used to infect the MEFs by spin inoculation as previously described (Lee et al., 2008). Cells stably expressing each pro-survival protein were selected by sorting GFP^+ve cells 24 hours after spin inoculation and protein expression verified by Western blotting using an anti-FLAG antibody. Following verification of exogenous pro-survival protein expression, each cell line was treated with 1 μM Tamoxifen (Sigma-Aldrich) to enable deletion of endogenous Mcl-1 and Bcl-xL. Deletion of endogenous Mcl-1 and Bcl-xL was shown by Western blotting using anti-Mcl-1 (Rockland Clone, 600-401-394) and anti-Bcl-xL (BD Transduction Laboratories Clone 44/Bcl-x) antibodies. Cells were maintained in DME Kelso medium supplemented with 10% (v/v) fetal bovine serum, 250 mM L-asparagine and […] 2-mercaptoethanol.
# Inducible αMCL1 and αBFL1 constructs were generated in a lentiviral vector described in Aubrey et al. (2015). […]
# T1 sequence (Q07820 172-327): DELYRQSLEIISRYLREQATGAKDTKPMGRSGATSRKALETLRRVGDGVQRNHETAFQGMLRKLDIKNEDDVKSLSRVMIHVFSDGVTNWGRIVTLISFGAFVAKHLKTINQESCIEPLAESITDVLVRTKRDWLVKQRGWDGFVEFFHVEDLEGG
# Sequence of BHRF1 (P03182 1-161): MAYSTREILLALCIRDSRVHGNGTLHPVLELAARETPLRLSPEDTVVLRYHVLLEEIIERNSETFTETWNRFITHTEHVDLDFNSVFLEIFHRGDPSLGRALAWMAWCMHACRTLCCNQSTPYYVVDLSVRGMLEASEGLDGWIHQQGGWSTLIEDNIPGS
Molecule,Log2 Enrichment Ratio: 400 nM BHRF1 [1],effect on long-term survival (in words) [2],Specificity [3],affinity for other BCL2 family members relative to Mcl-1 [4],effect on Bim binding profile ([5]; Bcl-2+ HeLa cells),effect on Bim binding profile ([5]; wild-type HeLa cells),decrease in survival [6]
B1,BHRF1 −2.81,,,,,,
B2,,negligible effect,"93,000",over ten thousand-fold weaker affinity,no effect,displacement of Bim from Mcl-1,90±11%
